One series concerns the target T1, I-PpoI (Physarum polycephalum, UniProt Q94702 1-163).
T1 sequence: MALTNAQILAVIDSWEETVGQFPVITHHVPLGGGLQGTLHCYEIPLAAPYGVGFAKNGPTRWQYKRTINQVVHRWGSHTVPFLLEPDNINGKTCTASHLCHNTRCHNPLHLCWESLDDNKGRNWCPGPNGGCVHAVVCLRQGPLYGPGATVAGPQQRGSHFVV
As to the kind of experiment: ITC.

The target in a further series is T2, I-AniI (Aspergillus nidulans, UniProt P03880 237-488).
T2 sequence: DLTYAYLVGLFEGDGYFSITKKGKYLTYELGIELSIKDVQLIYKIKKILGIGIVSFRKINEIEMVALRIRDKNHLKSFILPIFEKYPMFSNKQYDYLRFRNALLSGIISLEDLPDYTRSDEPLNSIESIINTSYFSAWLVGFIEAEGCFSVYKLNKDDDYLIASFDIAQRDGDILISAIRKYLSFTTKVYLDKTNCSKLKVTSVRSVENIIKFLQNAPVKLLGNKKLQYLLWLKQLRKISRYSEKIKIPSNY
Nature of the series: ITC.

B1: I-PpoI LL palindrome (dsDNA)
DNA 1: GGGGGTGCAGTGACTCTCTTAAGAGAGTCAGACGTGGGGG
DNA 2: CCCCCACGTCTGACTCTCTTAAGAGAGTCACTGCACCCCC
B1 gave a Kd with I-PpoI of 87 ± 8.8 nM.

B2: I-AniI WT site (dsDNA)
DNA 1: CCTTCCCTGAGGAGGTTTCTCTGTAAACCCTTCC
DNA 2: GGAAGGGTTTACAGAGAAACCTCCTCAGGGAAGG
As for B2, the Kd in the series with I-AniI was 96 ± 10 nM.

B3: I-AniI WT-OPT site (dsDNA)
DNA 1: CCTTCCCTGAGGAGGTTACTCTGTTAACCCTTCC
DNA 2: GGAAGGGTTAACAGAGTAACCTCCTCAGGGAAGG
B3 yielded a Kd with I-AniI of 8 ± 1 nM. Compared with the last molecule, the Kd is about 12-fold lower.

B4: I-PpoI RR palindrome (dsDNA)
DNA 1: GGGGGTGCAGTGGCTACCTTAAGGTAGCCAGACGTGGGGG
DNA 2: CCCCCACGTCTGGCTACCTTAAGGTAGCCACTGCACCCCC
For the molecule B4, in the series with I-PpoI, binding was put at a Kd of 23 ± 1.6 nM.

As usually defined, the Kd is the free concentration of one partner at which half of the binding sites on the other are occupied at equilibrium, for simple one-to-one binding. Read a low Kd as a tighter complex.

Source of the values: PMC2175346.
